Data as given in PMC10674394 (Pharmaceuticals, 2023).

Target: C-192 ( | human, UniProt P0CG48 1-76; P0CG48 1-76, L73P (from the printed letters 55-TLSDYNIQKESTLHLVLRPR-74), Lys63 of the acceptor ubiquitin in an isopeptide bond with the C-terminal glycine of the donor ubiquitin (Lys63-linked diubiquitin) | C-terminal glycine of the donor ubiquitin in an isopeptide bond …)
Assay: SPR; Biacore T200; C-192 immobilised on a CM5 chip by amine coupling (5 ug/mL in 10 mM sodium acetate pH 5.5, 400 RU); GLP-1R, GCGR (3.906-1000 nM) or KLB (0.195-200 nM) injected at 50 uL/min for 4 min, dissociation 10 min; 1:1 kinetic binding model
Settings: both partners purified

Kd: 19.4 nM | kon: 26300 M⁻¹ s⁻¹
B1: GCGR (receptor)
chain: AQVMDFLFEKWKLYGDQCHHNLSLLPPPTELVCNRTFDKYSCWPDTPANTTANISCPWYLPWHHKVQHRFVFKRCGPDGQWVRGPRGQPWRDASQCQMDGEEIEVQKEVAK
